Reference: PMC9510126, “Hydrophobicity is a key determinant in the activity of arginine-rich cell penetrating peptides” (Scientific Reports, 2022)
“Also recorded” adds a separate entry of the source. Ends that are not written are not given here.

Legend:
[1] = C18 reverse phase HPLC hydrophobicity of (X)TAT and d(X)TAT peptides; type: physicochemical; details: chromatographic, C18, 0–40% B over 20 min, 0.1% TFA (pH 2); ranking within the d(X)TAT series
Experimental: In order to assess the hydrophobicity contributed by each X group, the peptides were first analyzed by reverse phase HPLC using a C18 column, using gradients of buffer A (water/TFA 99.9:0.1) and buffer B (acetonitrile/water/TFA 89.9:10:0.1 v:v:v) (gradient of 0–40% B over 20 min). […] All d(X)TAT peptides eluted over a range of 10–35% acetonitrile. […] One caveat of this approach is that the buffer system used for peptide analysis is pH 2 (due to the presence of TFA, required to protonate residue side chains). However, pH 2 is not representative of the pH that CPPs may be exposed to when in contact with cells, either pH 7.2 outside the plasma membrane, or pH between 6.5 and 4.5 while inside acidic endosomes. In order to establish the relative hydrophobicities of d(X)TAT peptides at these pHs, we sought to use other techniques, including thin layer chromatography using C18, aluminum oxide or silica stationary phases. Unfortunately, the arginine-rich peptides could not be separated on these systems. To solve this problem, each individual X group was synthesized, using acetylated and amidated N and C-terminal positions to mimic the peptide backbone found in the d(X)TAT constructs (Fig. 1A, Figure S11). Each Ac-X-NH2 group was analyzed by HPLC and by RP18 TLC, using 40% acetonitrile and 60% PBS as mobile phase. The HPLC elutions of Ac-X-NH2 correlated with the HPLC elutions of their respective d(X)TAT counterparts (Fig. 1C). Similarly, the relative hydrophobicities of Ac-X-NH2 determined by TLC (measured as 1-Rf) at pH 4 or 8 were in good agreement with the results obtained by HPLC (Fig. 1D). […] In the case of DEAC, the protonation state of the fluorophore has, to our knowledge, not been characterized.
All rpHPLC retention times were analyzed using an Agilent HP 1200 series instrument on an analytical Phenomenex Luna Omega Polar C18 column (5 μm, 4.6 mm × 250 mm). The flow rate was 2 mL/min, and detection was at 214 nm. A binary solvent system was used comprising 99.9% H2O/0.1% TFA (solvent A) and 90% Acetonitrile/9.9% H2O/0.1% TFA (solvent B). […]

MDA-MB-231 cells = experiment: Staining of endosomes with LysoTracker (puncta per cell); type: cell-based, human; details: MDA-MB-231, 1 h with peptide (X = K(Ac), WW, FFLIP at 10, 1.5, 1.5 μM), LysoTracker Green DND-26 500 nM 5 min, biological triplicates
Experimental: Given that hydrophobicity of the d(X)TAT peptides appears to contribute to their membrane permeation activities, we next sought to establish whether this relationship could be recapitulated with membrane models, i.e. lipid bilayers. To establish which membrane system to test, we first aimed to test whether d(X)TAT peptides generally recapitulate the mechanism of cell entry previously determined with dfTAT. For this purpose, the delivery of TMR-k5 was performed in cells transfected with dominant-negative (DN) rab7(T22N), a protein that disrupts trafficking from early endosomes to late endosomes[29],[30]. For these experiments, d(WW)TAT and d(FFLIP)TAT were chosen as two “high activity/hydrophobicity” d(X)TAT representatives. […] In this case, approximately 5% of cells remained positive for TMR-k5 nuclear staining. […] To further probe the cell penetration mechanism, the number of endosomal organelles stained by Lysotracker in cells before and after delivery was quantified. The rationale behind this assay is that lysotracker accumulates in acidified organelles, typically late endosomes and lysosomes, that endosomal membrane leakage causes an increase of endosomal pH (presumably via leakage of luminal H^+ into the cytosol), and that, consequently, endosomes rendered potentially leaky by d(X)TAT peptides will not be stained by lysotracker.
For the quantification of acidic vesicles, cells were treated with LysoTracker Green DND-26 (500 nM) for 5 min. Alternatively, cells were pretreated with L-Leu-L-Leu methyl ester (LLOME; Sigma-Aldrich) incubated at 1 mM for 10 min, or bafilomycin (Sigma-Aldrich) at 1 µM for 4 h, and then stained with LysoTracker. Likewise, cells were pretreated with d(X)TAT peptides (X = K(Ac), WW, or FFLIP at 10, 1.5, and 1.5 μM) for 1 h. Cells were then washed an stained with LysoTracker immediately or after 12 h incubation in DMEM. For all conditions, fluorescence microscopy images were acquired using the 100× objective on an Olympus IX-81 microscope. ImageJ was used to calculate the number of LysoTracker-stained puncta per cell, as well as the area of each individual puncta. This analysis was performed for 50 cells imaged for each condition and reproduced in biological triplicates.

Substance: d(K(Ac))TAT: disulfide dimer of CXRKKRRQRRRG with X = lysine conjugated to an acetyl group (CK(Ac)RKKRRQRRRG-NH2; also: disulfide dimer)
- relative hydrophobicity of X group by C18 HPLC [1]: least hydrophobic; also recorded: lowest peptide on the hydrophobicity scale
- lysotracker stained endosomes (puncta per cell) immediately after incubation (MDA-MB-231 cells): did not affect lysotracker staining
